Test results published in patent US20210040189A1 (Amgen, published 2021).

What was measured:
human DKK1 [1] = target: T1, human DKK1 (human, UniProt O94907 32-266); assay: BiaCore 2000
T1 construct: also called huDKK1; hDKK1
T1 sequence: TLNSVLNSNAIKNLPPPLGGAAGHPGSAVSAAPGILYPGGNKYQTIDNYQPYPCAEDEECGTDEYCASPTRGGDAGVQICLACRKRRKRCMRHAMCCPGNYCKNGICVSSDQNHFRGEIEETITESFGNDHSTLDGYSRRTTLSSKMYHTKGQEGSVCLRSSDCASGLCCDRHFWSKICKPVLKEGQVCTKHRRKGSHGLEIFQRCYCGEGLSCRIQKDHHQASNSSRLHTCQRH
Description: BiaCore allowed us to determine the kd of the selected antibodies.

human DKK1 [2] = target: T1, human DKK1; assay: cell-based or functional assay
human DKK1 [3] = target: T1, human DKK1; assay: KinExA 3000 equilibrium binding in solution
Description: (§1) Accordingly, the affinity of several of these antibodies to DKK1 was further assessed by an equilibrium binding analysis using the more sensitive KinExAtm 3000. For these measurements, Reacti-Gel 6× beads (Pierce, Rockford, Ill.) were pre-coated with human, cynomologous or mouse DKK1 and blocked with BSA. One hundred pM, 300 pM, or 1000 pM of the antibody was mixed with various concentrations of human, mouse or cyno DKK1, ranging in concentration from 1 pM to 50 nM, and equilibrated at room temperature for 8 hours. The mixtures were then passed over the DKK1-coated beads. The amount of bead-bound anti-DKK1 antibody was quantified using goat anti-human-IgG antibody labeled with a fluorescent tag (Cy5; Jackson Immuno Research, West Grove, Pa.). The amount of fluorescent signal measured was proportional to the concentration of free anti-DKK1 antibody in each reaction mixture at equilibrium. The dissociation equilibrium constant (Kd) was obtained from nonlinear regression of the competition curves using a dual-curve one-site homogeneous binding model using the KinExA software.

mouse DKK1 = target: T2, mouse DKK1 (mouse, UniProt O54908 32-272); assay: KinExA 3000 equilibrium binding in solution
T2 construct: also called murine DKK1
T2 sequence: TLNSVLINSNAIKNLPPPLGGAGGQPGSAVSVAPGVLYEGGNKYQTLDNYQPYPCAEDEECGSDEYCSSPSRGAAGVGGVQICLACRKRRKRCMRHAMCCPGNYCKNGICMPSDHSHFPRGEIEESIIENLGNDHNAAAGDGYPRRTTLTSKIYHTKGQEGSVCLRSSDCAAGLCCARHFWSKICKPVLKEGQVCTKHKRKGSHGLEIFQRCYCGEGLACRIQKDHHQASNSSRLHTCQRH
Description: as §1

huDkk4 = target: T3, huDkk4 (human, UniProt Q9UBT3 19-224, limits assumed); assay: BiaCore
T3 sequence (looked up): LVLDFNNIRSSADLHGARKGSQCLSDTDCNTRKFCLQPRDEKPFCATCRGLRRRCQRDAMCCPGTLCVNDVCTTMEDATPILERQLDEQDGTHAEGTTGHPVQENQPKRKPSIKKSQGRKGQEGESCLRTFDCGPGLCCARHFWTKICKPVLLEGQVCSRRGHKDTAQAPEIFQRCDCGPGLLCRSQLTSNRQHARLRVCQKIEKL

cynomologous DKK1 = target: T4, cynomologous DKK1 (cynomolgus monkey, UniProt O94907 32-266 (human entry), limits assumed); assay: KinExA 3000 equilibrium binding in solution
T4 construct: also called cyno DKK1
T4 chain: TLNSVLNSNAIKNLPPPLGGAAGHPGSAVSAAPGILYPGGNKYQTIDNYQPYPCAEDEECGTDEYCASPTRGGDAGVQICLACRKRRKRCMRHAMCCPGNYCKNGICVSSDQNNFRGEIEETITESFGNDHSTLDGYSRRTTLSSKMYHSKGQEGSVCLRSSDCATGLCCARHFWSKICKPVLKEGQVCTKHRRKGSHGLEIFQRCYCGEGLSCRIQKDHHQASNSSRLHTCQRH
Description: as §1

B1: 5.32.1 (antibody, V domains shown)
VH: QVQLVQSGAEVKKPGASVKVSCKASGFTFTSYDISWVRQATGLGLEWMGWMNPSSGYTGYAQNFQGRVTMTWNTSISTVYMELSSLRSEDTAVYYCARTDYYYYGMDVWGRGTTVTVSS
VL: DIQMTQSPSSLSASVGDRVTITCQASQDISKDLNWYQQKPGKAPKLLIYDASNLETGVPSRFSGSGSGTDFTFTISSLQPEDIATYYCQQYDDLPITFGQGTRLEIK
notes: Fully human hybridoma IgG, kappa (Vk)
Human DKK1 [1]
  koff: 0.000191 s⁻¹
Human DKK1 [2]
  ST2 EC50: 3.48 nM
  TCF EC50: 1.01 nM
Human DKK1 [3]
  Kd: 0.003 nM
Mouse DKK1
  Kd: 0.04 nM
huDkk4
  binding result: no binding

B2: 6.116.6 (antibody, V domains shown)
VH: QVQLVESGGGVVQPGRSLRLSCAASGFTFSGYGMHWVRQAPGKGLEWVAVISYDGNDKYYADSVKGRFTISRDNAKNTLYLQMNSLRAEDTAVYYCARELRVLWGQGTLVTVSS
VL: DIVMTQTPLSLSVTPGQPASISCKSGQSLLHNDGKTYLYWYLQKPGQPPQFLIYEVSNRFSRVPDRFSGSGSGTDFTLKISRVEAEDVGIYYCMQSIQLPWTFGQGTQVEIK
notes: Fully human IgG, kappa (Vk)
Human DKK1 [1]
  koff: 2e-05 s⁻¹
Human DKK1 [2]
  ST2 EC50: 2.77 nM
  TCF EC50: 4.69 nM
Human DKK1 [3]
  Kd: 0.025 nM
Mouse DKK1
  Kd: 0.04 nM
Cynomologous DKK1
  Kd: 0.04 nM

B3: 2.40.1 (antibody, V domains shown)
VH: QVQLVESGGGVVQPGRSLRLSCAASGFTFSSYGMHWVRQAPGKGLGWVAVISYDGSDKYYADSVKGRFTISRDNSKNTLYLQMNSLRAEDTAVYYCARDLVDTAMPWGQGTTVTVSS
VL: DIVMTQSPLSLSVTPGQPASISCKSSQSLLHSDGKTYLYWYLQKPGQPPQLLIYEVSNRFSGVPDRFSGSGSGTDFTLKISRVEAEDVGVYYCMQSIQVPWTFGQGTKVEIK
notes: as for B1
Human DKK1 [1]
  koff: 6.27e-05 s⁻¹
Human DKK1 [2]
  ST2 EC50: 2.47 nM
  TCF EC50: 1.28 nM
Human DKK1 [3]
  Kd: 0.22 nM
Mouse DKK1
  Kd: 0.48 nM
Cynomologous DKK1
  Kd: 0.22 nM

B4: 6.37.5 (antibody, V domains shown)
VH: QVQLVESGGGVVQPGRSLRLSCAASGFTFSGYGMHWVRQAPGKGLEWVAVISYDGNDKYYADSVKGRFTISRDNAKNTLYLQMNSLRAEDTAVYYCARELRVLWGQGTLVTVSS
VL: DIVMTQTPLSLSVTPGQPASISCKSGQSLLHSDGKTYLYWYLQKPGQPPQFLIYEVSNRFSRVPDRFSGSGSGTDFTLRISRVEAEDVGIYYCMQSIQLPWTFGQGTQVEIK
notes: Fully human IgG, kappa (Vk)
Human DKK1 [1]
  koff: 4e-05 s⁻¹
Human DKK1 [2]
  ST2 EC50: 3.98 nM
  TCF EC50: 6.57 nM
Human DKK1 [3]
  Kd: 0.03 nM
Mouse DKK1
  Kd: 0.05 nM
Cynomologous DKK1
  Kd: 0.035 nM
